Key:
Assay in all cases: Biacore specificity assay: IgG immobilised (about 300 RU), antigen injected at 500 nM
[1] = biological target: T1, mTNFa (mouse, UniProt P06804 80-235)
T1 construct: Non-target panel protein
T1 sequence (looked up): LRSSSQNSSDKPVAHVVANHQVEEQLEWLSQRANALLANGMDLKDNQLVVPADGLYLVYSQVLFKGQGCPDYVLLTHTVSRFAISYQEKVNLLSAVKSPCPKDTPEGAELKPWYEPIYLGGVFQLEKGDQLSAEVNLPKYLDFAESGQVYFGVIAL
Experimental: (§1) Biacore specificity analyses were performed using the T-200 biosensor, series S CM5 chips, an amine-coupling kit, 10 mM sodium acetate immobilization buffer at pH 5.0, 10× HBS-P running buffer and NaOH for regeneration (GE Healthcare). A predefined ligand (IgG) immobilization program was set up to immobilize approximately 300 Response Units (RU) on the flow cell for each IgG to be tested. For Anti-RAGE and anti-A33, a panel of fully-purified recombinant target and non-target antigens were diluted in HBS-P running buffer to a final concentration of 500 nM. Four groups of antigens were examined, including: cell membrane proteins (mTRKB, hTRKB, mEGFR, hEGFR, hFceR1, hIL-21R, mICAM1, mICAM2, hICAM1, hCD33, hLAMP-1, hLOX-1, and), soluble signaling molecules (mTNFa, hVEGF, hCXCL13) and albumins (BSA, HSA and MSA). These proteins were injected at 50 μl/min for 3 min, followed by a 5 sec pulse of 20 mM NaOH for regeneration of the chip surface. For pTau, a series of pTau-derived phosphorylated and non-phosphorylated peptides were flowed, as in Shih et al.³. All sensorgrams were analyzed using the Biacore T-200 evaluation software.

[2] = biological target: T2, hICAM1 (human, UniProt P05362 28-480, limits assumed)
T2 construct: Non-target panel protein
T2 sequence (P05362 28-480 limits assumed): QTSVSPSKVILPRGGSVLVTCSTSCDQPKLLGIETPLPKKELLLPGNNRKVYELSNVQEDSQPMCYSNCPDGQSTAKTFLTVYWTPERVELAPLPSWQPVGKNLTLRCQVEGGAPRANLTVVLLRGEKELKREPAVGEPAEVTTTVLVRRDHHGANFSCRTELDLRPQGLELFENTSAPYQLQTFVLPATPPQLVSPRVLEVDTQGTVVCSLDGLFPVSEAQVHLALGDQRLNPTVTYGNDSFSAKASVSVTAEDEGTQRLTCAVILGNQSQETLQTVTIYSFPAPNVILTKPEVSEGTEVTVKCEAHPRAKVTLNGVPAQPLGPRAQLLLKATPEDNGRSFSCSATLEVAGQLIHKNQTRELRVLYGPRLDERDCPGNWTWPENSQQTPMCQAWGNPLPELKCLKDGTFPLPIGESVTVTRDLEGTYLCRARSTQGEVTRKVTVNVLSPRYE
Experimental: as §1

[3] = biological target: T3, hEGFR (human, UniProt P00533 25-645, limits assumed)
T3 construct: Non-target panel protein
Experimental: as §1

[4] = biological target: T4, hTRKB (human, UniProt Q16620 32-430, limits assumed)
T4 construct: Non-target panel protein
T4 sequence (Q16620 32-430 limits assumed): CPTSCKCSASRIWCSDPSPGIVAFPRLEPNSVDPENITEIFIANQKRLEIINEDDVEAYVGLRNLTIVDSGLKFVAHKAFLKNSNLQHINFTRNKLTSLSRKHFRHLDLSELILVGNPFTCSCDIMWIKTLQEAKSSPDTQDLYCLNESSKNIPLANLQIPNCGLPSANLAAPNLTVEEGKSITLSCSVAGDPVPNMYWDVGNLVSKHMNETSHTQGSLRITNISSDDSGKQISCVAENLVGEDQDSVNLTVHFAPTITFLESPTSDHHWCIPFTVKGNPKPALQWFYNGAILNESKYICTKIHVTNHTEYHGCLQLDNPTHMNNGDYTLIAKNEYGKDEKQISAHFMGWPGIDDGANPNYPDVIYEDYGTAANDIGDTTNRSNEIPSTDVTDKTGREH
Experimental: as §1

[5] = biological target: T5, BSA (UniProt P02769 25-607)
T5 construct: Non-target panel protein (albumins)
T5 sequence (P02769 25-607 limits assumed): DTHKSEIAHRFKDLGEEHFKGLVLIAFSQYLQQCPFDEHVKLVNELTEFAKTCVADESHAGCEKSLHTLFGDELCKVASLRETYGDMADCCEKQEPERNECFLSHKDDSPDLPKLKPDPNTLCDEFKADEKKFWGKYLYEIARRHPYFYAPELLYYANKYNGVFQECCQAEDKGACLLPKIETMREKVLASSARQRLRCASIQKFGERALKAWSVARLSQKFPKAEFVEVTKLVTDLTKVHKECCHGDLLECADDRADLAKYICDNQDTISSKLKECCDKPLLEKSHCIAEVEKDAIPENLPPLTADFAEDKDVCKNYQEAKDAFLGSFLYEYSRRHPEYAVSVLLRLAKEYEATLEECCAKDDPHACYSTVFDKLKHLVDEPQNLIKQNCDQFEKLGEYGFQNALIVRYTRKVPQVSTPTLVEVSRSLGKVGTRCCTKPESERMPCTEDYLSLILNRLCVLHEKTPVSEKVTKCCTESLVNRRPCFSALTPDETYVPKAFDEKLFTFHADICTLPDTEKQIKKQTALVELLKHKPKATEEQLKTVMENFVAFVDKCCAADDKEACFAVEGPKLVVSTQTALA
Experimental: as §1

[6] = biological target: T6, HSA (UniProt P02768 25-609)
T6 construct: Non-target panel protein (albumins)
T6 sequence (P02768 25-609): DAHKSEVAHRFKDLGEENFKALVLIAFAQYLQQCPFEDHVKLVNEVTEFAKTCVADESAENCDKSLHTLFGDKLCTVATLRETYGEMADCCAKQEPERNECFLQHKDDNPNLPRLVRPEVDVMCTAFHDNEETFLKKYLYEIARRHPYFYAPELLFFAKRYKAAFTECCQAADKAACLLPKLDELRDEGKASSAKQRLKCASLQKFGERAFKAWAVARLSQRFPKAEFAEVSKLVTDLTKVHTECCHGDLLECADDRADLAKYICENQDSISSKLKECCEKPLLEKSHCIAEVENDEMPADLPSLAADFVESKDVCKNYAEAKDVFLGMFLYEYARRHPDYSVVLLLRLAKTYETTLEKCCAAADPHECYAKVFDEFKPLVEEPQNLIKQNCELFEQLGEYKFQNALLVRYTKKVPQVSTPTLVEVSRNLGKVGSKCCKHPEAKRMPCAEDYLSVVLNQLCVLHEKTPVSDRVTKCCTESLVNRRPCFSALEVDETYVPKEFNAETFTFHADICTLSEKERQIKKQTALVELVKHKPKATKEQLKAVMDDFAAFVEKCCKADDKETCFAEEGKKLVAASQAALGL
Experimental: as §1

[7] = biological target: T7, hCD33 (human, UniProt P20138 18-259, limits assumed)
T7 construct: Non-target panel protein
T7 sequence (P20138 18-259 limits assumed): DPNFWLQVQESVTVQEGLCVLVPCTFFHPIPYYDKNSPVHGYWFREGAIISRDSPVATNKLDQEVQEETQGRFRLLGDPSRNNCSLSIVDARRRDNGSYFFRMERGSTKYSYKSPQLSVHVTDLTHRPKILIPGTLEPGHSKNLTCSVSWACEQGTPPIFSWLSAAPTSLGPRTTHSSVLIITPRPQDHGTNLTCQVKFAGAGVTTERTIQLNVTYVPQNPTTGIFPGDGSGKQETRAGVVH
Experimental: as §1

[8] = biological target: T8, hVEGF (human, UniProt P15692-4 27-191, limits assumed)
T8 construct: Non-target panel protein
T8 sequence (P15692 other isoform, or with tags, fused parts or gaps limits assumed): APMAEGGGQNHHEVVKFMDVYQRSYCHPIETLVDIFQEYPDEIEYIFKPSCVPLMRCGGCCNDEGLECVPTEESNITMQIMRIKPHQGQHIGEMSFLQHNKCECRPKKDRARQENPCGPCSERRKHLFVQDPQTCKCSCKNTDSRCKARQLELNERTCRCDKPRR
Experimental: as §1

[9] = biological target: T9, mICAM1 (mouse, UniProt P13597 28-485, limits assumed)
T9 construct: Non-target panel protein
T9 sequence (P13597 28-485 limits assumed): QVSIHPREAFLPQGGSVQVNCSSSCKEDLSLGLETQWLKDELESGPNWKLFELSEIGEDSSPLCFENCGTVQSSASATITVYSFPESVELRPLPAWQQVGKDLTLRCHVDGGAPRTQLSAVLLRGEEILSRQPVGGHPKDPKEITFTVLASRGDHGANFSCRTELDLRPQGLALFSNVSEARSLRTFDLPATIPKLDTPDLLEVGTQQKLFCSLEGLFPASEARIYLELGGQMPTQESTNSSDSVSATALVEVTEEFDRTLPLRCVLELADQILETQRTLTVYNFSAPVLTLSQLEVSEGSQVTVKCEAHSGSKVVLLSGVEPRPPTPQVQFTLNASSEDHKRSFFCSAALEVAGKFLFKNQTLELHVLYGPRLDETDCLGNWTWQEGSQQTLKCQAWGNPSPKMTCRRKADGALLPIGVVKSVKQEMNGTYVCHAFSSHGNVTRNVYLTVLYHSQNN
Experimental: as §1

[10] = biological target: T10, hIL-21R (human, UniProt Q9HBE5 20-232, limits assumed)
T10 construct: Non-target panel protein
T10 sequence (Q9HBE5 20-232 limits assumed): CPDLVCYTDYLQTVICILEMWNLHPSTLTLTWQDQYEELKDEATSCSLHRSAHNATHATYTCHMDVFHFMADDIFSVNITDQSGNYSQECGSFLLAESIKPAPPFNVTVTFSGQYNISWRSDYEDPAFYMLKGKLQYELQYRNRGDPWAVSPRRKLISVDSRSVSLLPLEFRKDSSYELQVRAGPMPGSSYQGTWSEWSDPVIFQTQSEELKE
Experimental: as §1

[11] = biological target: T11, hLAMP-1 (human, UniProt P11279 29-382, limits assumed)
T11 construct: Non-target panel protein
T11 sequence (looked up): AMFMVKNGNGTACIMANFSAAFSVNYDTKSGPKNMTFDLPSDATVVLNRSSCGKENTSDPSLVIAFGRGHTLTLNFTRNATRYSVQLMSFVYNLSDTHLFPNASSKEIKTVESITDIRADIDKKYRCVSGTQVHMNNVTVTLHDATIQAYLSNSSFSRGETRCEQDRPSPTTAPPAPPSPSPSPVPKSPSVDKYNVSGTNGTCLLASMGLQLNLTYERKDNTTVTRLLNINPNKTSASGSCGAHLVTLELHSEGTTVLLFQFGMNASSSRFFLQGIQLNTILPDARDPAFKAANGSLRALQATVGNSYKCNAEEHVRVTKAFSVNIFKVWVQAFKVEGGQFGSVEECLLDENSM
Experimental: as §1

[12] = biological target: T12, hFceR1 (human, UniProt P12319 26-205)
T12 construct: Non-target panel protein
T12 sequence (alpha): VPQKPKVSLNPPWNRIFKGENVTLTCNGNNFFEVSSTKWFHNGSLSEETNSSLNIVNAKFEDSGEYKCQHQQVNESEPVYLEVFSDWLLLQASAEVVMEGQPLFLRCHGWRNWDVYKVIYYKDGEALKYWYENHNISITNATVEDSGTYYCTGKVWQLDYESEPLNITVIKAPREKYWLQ
Experimental: as §1

[13] = biological target: T13, MSA (UniProt P07724 25-608)
T13 construct: Non-target panel protein (albumins)
Experimental: as §1

[14] = biological target: T14, mICAM2 (mouse, UniProt P35330 23-222, limits assumed)
T14 construct: Non-target panel protein
T14 sequence (looked up): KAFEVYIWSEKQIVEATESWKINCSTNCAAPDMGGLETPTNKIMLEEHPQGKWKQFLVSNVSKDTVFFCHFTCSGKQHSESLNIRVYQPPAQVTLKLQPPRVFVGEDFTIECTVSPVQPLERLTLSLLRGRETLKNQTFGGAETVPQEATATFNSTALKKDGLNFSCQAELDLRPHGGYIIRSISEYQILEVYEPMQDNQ
Experimental: as §1

[15] = biological target: hLOX-1 (human, UniProt P78380 61-273)
Experimental: as §1

Measured: binding result

B1: C7-ABS-RAGE IgG (human IgG1) (antibody, V domains shown)
VH: EVQLVESGGGLVQPGGSLRLSCAASGFTFSSYWMSWVRQAPGKGLEWVASIDQDGSNKYYPDSVKGRFTISRDNAKNSLYLQMNSLRAEDTAVYYCARGGDITTGLDYWGQGTLVTVSS
VL: DIQMTQSPSSLSASVGDRVTITCRASQSIGSYLNWYQQKPGKAPKLLIYRASSLASGVPSRFSGSGSGTDFTLTISSLQPEDFATYYCLEFDEHPLTFGGGTKVEIK
notes: Human IgG1 format
no binding (tested: 500 nM): all assays above

Reference: patent publication US20170073395A1 (Pfizer, published 2017)
